For assay [1], the target named is HLA-A*69:01. Description: IEDB peptide-MHC binding, purified MHC/direct/fluorescence; filed as Kd, often an IC50 or EC50 that approximates it; ≥ and ≤ were set here for values at or beyond the usual limits of such assays.
The target in assay [2] is HLA-A*11:01. The assay is described as above.
For assay [3], the target named is HLA-A*02:01. The assay is described as above.
The target of assay [4] is HLA-A*01:01. The experiment in a line: IEDB peptide-MHC binding, purified MHC/competitive/radioactivity; filed as Kd, often an IC50 or EC50 that approximates it; ≥ and ≤ were set here for values at or beyond the usual limits of such assays.
For assay [5], the target named is HLA-A*32:01. Described as above.
Assay [6] deals with HLA-A*30:02. The assay is described as above.
In assay [7] the target is HLA-B*40:01. The description is as above.
The target in assay [8] is HLA-B*44:02. The assay is described as above.
In assay [9] the target is HLA-A*01:01. Description: IEDB peptide-MHC binding, purified MHC/direct/fluorescence; filed as Kd, often an IC50 or EC50 that approximates it; ≥ and ≤ were set here for values at or beyond the usual limits of such assays. Particulars: source organism: Homo sapiens.
Assay [10] has as its target HLA-A*03:01. The assay is described as above.
In assay [11] the target is HLA-B*58:01. Described as above.
The target in assay [12] is HLA-B*44:03. Description: IEDB peptide-MHC binding, purified MHC/competitive/radioactivity; filed as Kd, often an IC50 or EC50 that approximates it; ≥ and ≤ were set here for values at or beyond the usual limits of such assays.
Assay [13] addresses HLA-A*24:02. The assay is described as above.
Assay [14] addresses HLA-A*23:01. The description is as above.
In assay [15] the target is HLA-A*26:01. The description is as above.
The target of assay [16] is HLA-B*15:01. Description: IEDB peptide-MHC binding, purified MHC/direct/fluorescence; filed as Kd, often an IC50 or EC50 that approximates it; ≥ and ≤ were set here for values at or beyond the usual limits of such assays.
For assay [17], the target named is HLA-B*40:01. The description is as above. Particulars: source organism: Mammarenavirus juninense.
Where [18] appears, read: source organism: Pseudomonas aeruginosa.
[19] abbreviates: source organism: Dengue virus 2 Jamaica/1409/1983.
[20] abbreviates: source organism: Dengue virus 1 Brazil/97-11/1997.
The mark [21] stands for this setting: source organism: Dengue virus 3 Martinique/1243/1999.
[22] abbreviates: source organism: Dengue virus 4 Philippines/H241/1956.
The mark [23] stands for this setting: source organism: Mycobacterium tuberculosis.
Setting [24] is: source organism: Dengue virus 2 Peru/IQT2913/1996.
The mark [25] stands for this setting: source organism: Rickettsia conorii.
The mark [26] stands for this setting: source organism: Vaccinia virus WR.

A word on the Kd: it is the free concentration of one partner at which half of the binding sites on the other are occupied at equilibrium, for simple one-to-one binding. Regarding GVFKVWHPI, the Kd is 1340 nM in assay [1] (setting [18]), 6490 nM in [2] (setting [18]) and 5720 nM in [3] (setting [18]).
Take LTSKELMMA: the Kd in [4] (setting [19]) was 5730 nM.
Turning to LTARATWATN, the Kd in assay [5] (setting [20]) is ≥ 44400 nM.
Consider NGVVTKNGGY, for which the Kd in [6] (setting [21]) came to 15500 nM.
Turning to NELPESLETL, the Kd in [7] (setting [22]) amounted to 246 nM.
Regarding KEGDQYIYM, the Kd in [7] (source organism: Dengue virus 1 Nauru/West Pac/1974) worked out at 45.1 nM.
In the case of NKAWMVHRQW, in assay [8] (setting [21]), the Kd was 12600 nM.
With STDHIPILY, the equilibrium dissociation constant (Kd) was 7420 nM in assay [1] (source organism: Homo sapiens); 148 nM in [9]; 3150 nM in [10] (source organism: Homo sapiens); 381 nM in [2] (source organism: Homo sapiens); 2030 nM in assay [11] (source organism: Homo sapiens).
With YTQLRFPKK, the Kd in assay [10] (setting [23]) was 493 nM; in assay [2] (setting [23]), 4.3 nM.
In the case of SSVSSFERF, in assay [11] (source organism: Influenza A virus (A/camel/Mongolia/1982(H1N1))), the Kd was 72.5 nM.
On to SLGILCVSI, for which, in assay [5] (setting [20]), the Kd was found to be 238 nM.
KEAKMLLDNI: the Kd in assay [12] (setting [19]) amounted to 1760 nM.
In the case of EYQKTKNNDW, the Kd is 19700 nM in assay [13] (setting [20]) and ≥ 33600 nM in assay [14] (setting [20]).
Regarding YSDPLALKE, in [4] (setting [19]), the Kd was 311 nM.
Regarding NALKINWYKK, the Kd in assay [5] (setting [21]) turned out to be 2140 nM.
In the case of EEALKGLPI, in assay [7] (setting [21]), the Kd is 3380 nM.
Take STDGPERVIL: the Kd in assay [4] (setting [22]) came out at 18700 nM.
On to AYMIGQTGI, for which the Kd in [13] (setting [22]) stood at 93 nM.
In the case of RLVDSIVSW, the equilibrium dissociation constant (Kd) in [11] (source organism: Influenza A virus (A/Istanbul/CTF/10/2004(H3N2))) is 49.1 nM.
For METLLLLGL, the Kd in assay [8] (setting [21]) was found to be 8.98 nM; in assay [7] (setting [21]), 81.3 nM; in assay [12] (setting [21]) it was 33.2 nM.
For EYVKTRTNDW, the Kd came out at 2170 nM in [13] (setting [24]) and 3410 nM in assay [14] (setting [24]).
In the case of GVSGGSWVDI, the Kd in assay [5] (setting [19]) amounted to 4310 nM.
As for EERVILAGPM, the values for the Kd in [8] (setting [19]) and in [7] (setting [19]) were 2280 nM and 2740 nM, respectively.
For GSPGKFWNTT, in [5] (setting [20]), the Kd was ≥ 25700 nM.
EHALLATSIF: the Kd is ≥ 22400 nM in assay [15] (setting [20]) and 4610 nM in [14] (setting [20]).
For the sequence QETWNRQDL, in assay [7] (setting [20]), the Kd stood at 72.8 nM.
In the case of IIMFDAEKL, the Kd was 1110 nM in assay [1] (setting [25]) and 3350 nM in [16] (setting [25]).
Turning to WLVHKQWFLD, in assay [5] (setting [20]), the Kd stood at 2070 nM.
For the sequence YQGKTVWFVP, in assay [5] (setting [22]), the Kd was 8500 nM.
Consider DMCDIYLLY, for which the Kd in assay [13] (setting [26]) came to 2070 nM; in [14] (setting [26]) it was 216 nM.
Regarding ITISEDGSM, the Kd in assay [15] (setting [19]) worked out at 2990 nM.
As for WNSGYDWITD, in assay [5] (setting [20]), the Kd was found to be 4830 nM.
With AALLLLVAHY, the Kd in [6] (setting [19]) was found to be 10500 nM.
For LFKTNTGTI, the Kd in assay [13] (setting [19]) is 1280 nM.
As for SLDRKEFEEY, the dissociation constant Kd in assay [4] (setting [22]) turned out to be 1050 nM.
On to KINNFANEF, for which the Kd in assay [5] (setting [26]) turned out to be 2.08 nM.
On to WYMWLGARF, for which the Kd in assay [13] (setting [19]) is 16.2 nM; in assay [14] (setting [19]), 20.2 nM.
In assay [17], TEEAFKIGL displayed a Kd of 0.3 nM.
For AELEEGVYR, in [12] (setting [21]), the Kd was 9270 nM.
Regarding SWALCEALTL, the figures for the Kd in assay [13] (setting [21]) and in [14] (setting [21]) were 500 nM and 429 nM, respectively.
Regarding FHMDPSGTF, the Kd in [3] (source organism: Homo sapiens) stood at 14400 nM; in [16] (source organism: Homo sapiens), 465 nM.
With EVTARWLWGF, the Kd in assay [15] (source organism: Dengue virus 1 Singapore/S275/1990) is 32.7 nM.
Regarding CNLTSAWVMY, the Kd in assay [6] (setting [22]) was 554 nM.
For ETLLLLTLLA, the Kd in assay [15] (setting [19]) was ≥ 22700 nM.
Consider YVIKVSARV, for which the Kd in assay [15] (source organism: Homo sapiens) was 8.61 nM.
For the sequence DINFITVNI, the Kd in assay [5] (setting [26]) came to 424 nM.
The same measure, in the same setting: the figure for SICEIVYSF is 0.352 nM; for IINKFFEVI it is 11.1 nM.

The values are drawn from the Immune Epitope Database (IEDB).
